Holding throughout (experiment): crystal structure
For assay [1], the target named is Chaetomium thermophilum Ahp1 C30S (Chaetomium thermophilum).
Assay [2] has the same target. The source holds these as a separate data set.
The target in assay [3] is Chaetomium thermophilum Ahp1, wild type (Chaetomium thermophilum).

Like-named read-outs stand apart in the source and are kept apart here.

For orientation: stoichiometry N means a count of units in the complex or per binding partner. For “Chaetomium thermophilum Ahp1 C30S (enzyme)”, the stoichiometry N in assay [1] and in assay [2] was 2 in each case. Take “Chaetomium thermophilum Ahp1, wild type (enzyme)”: the stoichiometry N in assay [3] stood at 2.

These data come from PMC9574740.
